Substitutions are numbered along the chain they refer to.
T1: LZTR1 R810W-FLAG (human, UniProt Q8N653 1-840)
T1 construct: Stably expressed in U87 cells by lentivirus; also called LZTR1-FLAG-R810W; LZTR1 RW; not shown: FLAG tag
T1 sequence (looked up): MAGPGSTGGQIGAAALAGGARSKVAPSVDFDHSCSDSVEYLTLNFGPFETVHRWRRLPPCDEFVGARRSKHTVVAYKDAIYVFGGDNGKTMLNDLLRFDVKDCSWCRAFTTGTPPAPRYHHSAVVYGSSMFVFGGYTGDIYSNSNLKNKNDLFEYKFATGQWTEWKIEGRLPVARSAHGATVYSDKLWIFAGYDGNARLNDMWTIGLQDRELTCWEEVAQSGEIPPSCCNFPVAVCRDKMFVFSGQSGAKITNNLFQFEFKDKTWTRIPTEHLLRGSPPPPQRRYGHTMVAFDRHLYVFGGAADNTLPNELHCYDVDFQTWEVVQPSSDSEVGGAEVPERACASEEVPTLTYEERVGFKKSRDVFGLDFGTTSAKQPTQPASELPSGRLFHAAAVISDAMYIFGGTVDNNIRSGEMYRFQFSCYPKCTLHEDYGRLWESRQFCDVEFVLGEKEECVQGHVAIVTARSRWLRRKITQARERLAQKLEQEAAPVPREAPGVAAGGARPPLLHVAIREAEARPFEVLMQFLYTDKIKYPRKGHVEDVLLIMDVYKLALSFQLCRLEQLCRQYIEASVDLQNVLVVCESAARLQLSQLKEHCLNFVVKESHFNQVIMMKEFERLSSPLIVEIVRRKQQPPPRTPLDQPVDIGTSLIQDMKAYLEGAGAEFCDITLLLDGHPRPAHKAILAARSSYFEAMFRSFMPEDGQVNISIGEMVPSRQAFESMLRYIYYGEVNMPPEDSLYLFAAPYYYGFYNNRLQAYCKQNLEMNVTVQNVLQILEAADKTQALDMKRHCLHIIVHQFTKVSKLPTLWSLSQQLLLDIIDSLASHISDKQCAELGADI

T2: LZTR1-FLAG (human, UniProt Q8N653 1-840)
T2 construct: Expressed in HEK 293T, HeLa or U87 cells; used as cell lysate; also called LZTR1 wild type-FLAG; LZTR1 WT; not shown: FLAG tag at the C-terminus
T2 sequence (looked up): T1 sequence (looked up) with W810R

B1: RASA3 (other, human, UniProt Q14644 2-834, looked up)
chain: AVEDEGLRVFQSVKIKIGEAKNLPSYPGPSKMRDCYCTVNLDQEEVFRTKIVEKSLCPFYGEDFYCEIPRSFRHLSFYIFDRDVFRRDSIIGKVAIQKEDLQKYHNRDTWFQLQHVDADSEVQGKVHLELRLSEVITDTGVVCHKLATRIVECQGLPIVNGQCDPYATVTLAGPFRSEAKKTKVKRKTNNPQFDEVFYFEVTRPCSYSKKSHFDFEEEDVDKLEIRVDLWNASNLKFGDEFLGELRIPLKVLRQSSSYEAWYFLQPRDNGSKSLKPDDLGSLRLNVVYTEDHVFSSDYYSPLRDLLLKSADVEPVSASAAHILGEVCREKQEAAVPLVRLFLHYGRVVPFISAIASAEVKRTQDPNTIFRGNSLASKCIDETMKLAGMHYLHVTLKPAIEEICQSHKPCEIDPVKLKDGENLENNMENLRQYVDRVFHAITESGVSCPTVMCDIFFSLREAAAKRFQDDPDVRYTAVSSFIFLRFFAPAILSPNLFQLTPHHTDPQTSRTLTLISKTVQTLGSLSKSKSASFKESYMATFYEFFNEQKYADAVKNFLDLISSSGRRDPKSVEQPIVLKEGFMIKRAQGRKRFGMKNFKKRWFRLTNHEFTYHKSKGDQPLYSIPIENILAVEKLEEESFKMKNMFQVIQPERALYIQANNCVEAKDWIDILTKVSQCNQKRLTVYHPSAYLSGHWLCCRAPSDSAPGCSPCTGGLPANIQLDIDGDRETERIYSLFNLYMSKLEKMQEACGSKSVYDGPEQEEYSTFVIDDPQETYKTLKQVIAGVGALEQEHAQYKRDKFKKTKYGSQEHPIGDKSFQNYIRQQSETSTHSI
B2: SL C39A14 (other, human, UniProt Q15043 31-492, looked up)
chain: SSLGAPAISAASFLQDLIHRYGEGDSLTLQQLKALLNHLDVGVGRGNVTQHVQGHRNLSTCFSSGDLFTAHNFSEQSRIGSSELQEFCPTILQQLDSRACTSENQENEENEQTEEGRPSAVEVWGYGLLCVTVISLCSLLGASVVPFMKKTFYKRLLLYFIALAIGTLYSNALFQLIPEAFGFNPLEDYYVSKSAVVFGGFYLFFFTEKILKILLKQKNEHHHGHSHYASESLPSKKDQEEGVMEKLQNGDLDHMIPQHCSSELDGKAPMVDEKVIVGSLSVQDLQASQSACYWLKGVRYSDIGTLAWMITLSDGLHNFIDGLAIGASFTVSVFQGISTSVAILCEEFPHELGDFVILLNAGMSIQQALFFNFLSACCCYLGLAFGILAGSHFSANWIFALAGGMFLYISLADMFPEMNEVCQEDERKGSILIPFIIQNLGLLTGFTIMVVLTMYSGQIQIG
notes: Printed as SL C39A14; read as SLC39A14
B3: RETSAT (other, human, UniProt Q6NUM9 19-610, looked up)
chain: KVYLGLFSGSSPNPFSEDVKRPPAPLVTDKEARKKVLKQAFSANQVPEKLDVVVIGSGFGGLAAAAILAKAGKRVLVLEQHTKAGGCCHTFGKNGLEFDTGIHYIGRMEEGSIGRFILDQITEGQLDWAPLSSPFDIMVLEGPNGRKEYPMYSGEKAYIQGLKEKFPQEEAIIDKYIKLVKVVSSGAPHAILLKFLPLPVVQLLDRCGLLTRFSPFLQASTQSLAEVLQQLGASSELQAVLSYIFPTYGVTPNHSAFSMHALLVNHYMKGGFYPRGGSSEIAFHTIPVIQRAGGAVLTKATVQSVLLDSAGKACGVSVKKGHELVNIYCPIVVSNAGLFNTYEHLLPGNARCLPGVKQQLGTVRPGLGMTSVFICLRGTKEDLHLPSTNYYVYYDTDMDQAMERYVSMPREEAAEHIPLLFFAFPSAKDPTWEDRFPGRSTMIMLIPTAYEWFEEWQAELKGKRGSDYETFKNSFVEASMSVVLKLFPQLEGKVESVTAGSPLTNQFYLAAPRGACYGADHDLGRLHPCVMASLRAQSPIPNLYLTGQDIFTCGLVGALQGALLCSSAILKRNLYSDLKNLDSRIRAQKKKN
B4: SHKBP1 (other, human, UniProt Q8TBC3 2-707, looked up)
chain: AAAATAAEGVPSRGPPGEVIHLNVGGKRFSTSRQTLTWIPDSFFSSLLSGRISTLKDETGAIFIDRDPTVFAPILNFLRTKELDPRGVHGSSLLHEAQFYGLTPLVRRLQLREELDRSSCGNVLFNGYLPPPVFPVKRRNRHSLVGPQQLGGRPAPVRRSNTMPPNLGNAGLLGRMLDEKTPPSPSGQPEEPGMVRLVCGHHNWIAVAYTQFLVCYRLKEASGWQLVFSSPRLDWPIERLALTARVHGGALGEHDKMVAAATGSEILLWALQAEGGGSEIGVFHLGVPVEALFFVGNQLIATSHTGRIGVWNAVTKHWQVQEVQPITSYDAAGSFLLLGCNNGSIYYVDVQKFPLRMKDNDLLVSELYRDPAEDGVTALSVYLTPKTSDSGNWIEIAYGTSSGGVRVIVQHPETVGSGPQLFQTFTVHRSPVTKIMLSEKHLISVCADNNHVRTWSVTRFRGMISTQPGSTPLASFKILALESADGHGGCSAGNDIGPYGERDDQQVFIQKVVPSASQLFVRLSSTGQRVCSVRSVDGSPTTAFTVLECEGSRRLGSRPRRYLLTGQANGSLAMWDLTTAMDGLGQAPAGGLTEQELMEQLEHCELAPPAPSAPSWGCLPSPSPRISLTSLHSASSNTSLSGHRGSPSPPQAEARRRGGGSFVERCQELVRSGPDLRRPPTPAPWPSSGLGTPLTPPKMKLNETSF
B5: SHCBP1 (other, human, UniProt Q8NEM2 2-672, looked up)
chain: ADGSLTGGGLEAAAMAPERMGWAVEQELASLEKGLFQDEDSCSDCSYRDKPGSSLQSFMPEGKTFFPEIFQTNQLLFYERFRAYQDYILADCKASEVQEFTAEFLEKVLEPSGWRAVWHTNVFKVLVEITDVDFAALKAVVRLAEPYLCDSQVSTFTMECMKELLDLKEHRLPLQELWVVFDDSGVFDQTALAIEHVRFFYQNIWRSWDEEEEDEYDYFVRCVEPRLRLHYDILEDRVPSGLIVDYHNLLSQCEESYRKFLNLRSSLSNCNSDSEQENISMVEGLKLYSEMEQLKQKLKLIENPLLRYVFGYQKNSNIQAKGVRSSGQKITHVVSSTMMAGLLRSLLTDRLCQEPGEEEREIQFHSDPLSAINACFEGDTVIVCPGHYVVHGTFSIADSIELEGYGLPDDIVIEKRGKGDTFVDCTGADIKISGIKFVQHDAVEGILIVHRGKTTLENCVLQCETTGVTVRTSAEFLMKNSDLYGAKGAGIEIYPGSQCTLSDNGIHHCKEGILIKDFLDEHYDIPKISMVNNIIHNNEGYGVVLVKPTIFSDLQENAEDGTEENKALKIQTSGEPDVAERVDLEELIECATGKMELCARTDPSEQVEGNCEIVNELIAASTQKGQIKKKRLSELGITQADDNLMSQEMFVGIVGNQFKWNGKGSFGTFLF
B6: SCYL1 (other, human, UniProt Q96KG9 1-808, looked up)
chain: MWFFARDPVRDFPFELIPEPPEGGLPGPWALHRGRKKATGSPVSIFVYDVKPGAEEQTQVAKAAFKRFKTLRHPNILAYIDGLETEKCLHVVTEAVTPLGIYLKARVEAGGLKELEISWGLHQIVKALSFLVNDCSLIHNNVCMAAVFVDRAGEWKLGGLDYMYSAQGNGGGPPRKGIPELEQYDPPELADSSGRVVREKWSADMWRLGCLIWEVFNGPLPRAAALRNPGKIPKTLVPHYCELVGANPKVRPNPARFLQNCRAPGGFMSNRFVETNLFLEEIQIKEPAEKQKFFQELSKSLDAFPEDFCRHKVLPQLLTAFEFGNAGAVVLTPLFKVGKFLSAEEYQQKIIPVVVKMFSSTDRAMRIRLLQQMEQFIQYLDEPTVNTQIFPHVVHGFLDTNPAIREQTVKSMLLLAPKLNEANLNVELMKHFARLQAKDEQGPIRCNTTVCLGKIGSYLSASTRHRVLTSAFSRATRDPFAPSRVAGVLGFAATHNLYSMNDCAQKILPVLCGLTVDPEKSVRDQAFKAIRSFLSKLESVSEDPTQLEEVEKDVHAASSPGMGGAAASWAGWAVTGVSSLTSKLIRSHPTTAPTETNIPQRPTPEGVPAPAPTPVPATPTTSGHWETQEEDKDTAEDSSTADRWDDEDWGSLEQEAESVLAQQDDWSTGGQVSRASQVSNSDHKSSKSPESDWSSWEAEGSWEQGWQEPSSQEPPPDGTRLASEYNWGGPESSDKGDPFATLSARPSTQPRPDSWGEDNWEGLETDSRQVKAELARKKREERRREMEAKRAERKVAKGPMKLGARKLD

molecular target: T1, LZTR1 R810W-FLAG; assay: IP/MS, LZTR1 R810W-FLAG, U87
In short: (§1)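 Read-out: spectral counts from LC-MS/MS (Orbitrap Fusion) after MaxQuant identification. Variable modifications were Met oxidation, protein N-terminal acetylation and N/Q deamidation.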

| binding result | Binder |
| --- | --- |
| binds | B1 |
| binds | B2 |
| binds | B3 |
| binds | B4 |
| binds | B5 |
| binds | B6 |

molecular target: T2, LZTR1-FLAG; assay: IP/MS, LZTR1 wild type-FLAG, U87
In short: as §1

| binding result | Binder |
| --- | --- |
| binds | B1 |
| binds | B2 |
| binds | B3 |
| binds | B4 |
| binds | B5 |
| binds | B6 |
